This is an account of results in paper PMC3338718, “Characterization of a Novel ArsR-Like Regulator Encoded by Rv2034 in Mycobacterium tuberculosis”.

Series [1] addresses T1, Rv2034 (ArsR family regulator) (Mycobacterium tuberculosis) (UniProt O53478).
T1 sequence: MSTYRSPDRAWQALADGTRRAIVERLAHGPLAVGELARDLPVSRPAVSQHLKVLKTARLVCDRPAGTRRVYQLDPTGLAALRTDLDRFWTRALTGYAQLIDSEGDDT
Description: EMSA.

Series [2] has as its target T2, Rv2034ΔN28 del1-28 (Mycobacterium tuberculosis) (UniProt O53478).
T2 sequence: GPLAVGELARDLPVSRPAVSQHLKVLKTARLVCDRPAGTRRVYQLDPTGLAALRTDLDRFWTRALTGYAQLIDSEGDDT
Description: EMSA. For orientation: In EMSA bound probe runs differently from free probe, usually more slowly.

Series [3] concerns the target T1, Rv2034 (ArsR family regulator) (Mycobacterium tuberculosis). Briefly: competition.
Series [4] shares this target. Description: DNase I footprinting.
Series [5] addresses T3, Rv2034 (ArsR family regulator) (Mycobacterium tuberculosis, UniProt O53478 1-107).
T3 sequence: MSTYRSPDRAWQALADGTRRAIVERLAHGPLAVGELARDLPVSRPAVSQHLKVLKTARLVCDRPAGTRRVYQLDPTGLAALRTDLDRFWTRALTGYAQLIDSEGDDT
Briefly: EMSA; 0.1-1.2 uM protein. The conditions noted are these: protein: recombinant; tags: N-terminal His6 (pET28a); chain copies: 2; label: 5' label (32P or FITC); blunt.

As to “AATTTCTAGAGCCTGCGGCAAGCACGTCGGTTCCATAGCGATCCAGCACGCCGCAATACTAGGGAGCCTCTCTGCCGGTCATCGCCGCGACGCGCCGCATGGGTTCTCGGAAAATGCTTGTACCAGTCGACTTTCCGGCGGGCCAACGTCGCCAACCGATACTCGGCTCCAACGCCATGGGTGACGGGATGCCCGGATCACGTGTCACACCACCCGCGCACCCTTGCGGAAGAATATCCGTAAGTCTAAACTTACGGTTCGAATTCCCGG (double strand) [Rv2034p promoter]”, the binding entry in series [1] was “binds”; in series [2], “no binding”; in series [3] it was “binds”.

On to “ACTGTCTAGAGTTGGCGCATGTACACCTGAGCCGTCGGCTCGCCCACTGGACCCGGCTCTACCCCGAGGTGCGGGTGGATCGGGCCATCGCCGGCGGCAGTGCGTGCCGTCATCTGGCCGCCAACGCAAAGCCGGGTCAGCTGTTCGTCGCGGACTCACACTCCGCGCACGAATTGTGCGGTGCATACCAGCCCGGATGCGCCGTACTTACGGTACGCAGTGCCAACTTGTAGGGAGCGGATCTTGGGAGTGGTGCCCTGGAATTCATCT (double strand) [Rv3133cp (dosR promoter)]”, for which the binding entry in series [1] is on record as “binds”.

“GATAGAATTCTACCAGTCGACTTTCCGGCGGGCCAACGTCGCCAACCGATACTCGGCTCCAACGCCATGGGTGACGGGATGCCCGGATCACGTGTCACACCACCCGCGCACCCTTGCGGAAGAATATCCGTAAGTCTAAACTTACGGTTCGTGTCCACTTACAGATCACCGGATCGCGCTTGGCAGGCGCTGGCGGACGGCACTCGCCGGGCCATCGTGGAGCGGCTGGCGCATCTAGATGTC (double strand) [Rv2034p footprint fragment]”: the binding entry in series [4] is reported as “binds”.

B1: Rv2034BSwt (dsDNA)
DNA 1: GGAAGAATATCCGTAAGTCTAAACTTACGGTTCGTGTCCA
DNA 2: TGGACACGAACCGTAAGTTTAGACTTACGGATATTCTTCC
Consider B1, for which the binding result in series [5] was “binds”.
